Patent EP3176583A2 (TLA Targeted Immunotherapies AB, dated 2017)
Bridge positions count the residues as written; N and C are the ends. Square brackets hold non-standard residues; d marks the D form. Side chains are listed from the residue outwards. * marks the point of attachment. Biotin = O=C1N[C@H]2[C@H](CS[C@H]2CCCCC(=O)*)N1; pGlu = O=C1CC[C@@H](C(=O)O)N1; Nle = CCCC[C@H](N)C(=O)O; AEEA = NCCOCCOCC(=O)O

T1: hCCR9 (human, UniProt P51686 1-369)
T1 sequence (looked up): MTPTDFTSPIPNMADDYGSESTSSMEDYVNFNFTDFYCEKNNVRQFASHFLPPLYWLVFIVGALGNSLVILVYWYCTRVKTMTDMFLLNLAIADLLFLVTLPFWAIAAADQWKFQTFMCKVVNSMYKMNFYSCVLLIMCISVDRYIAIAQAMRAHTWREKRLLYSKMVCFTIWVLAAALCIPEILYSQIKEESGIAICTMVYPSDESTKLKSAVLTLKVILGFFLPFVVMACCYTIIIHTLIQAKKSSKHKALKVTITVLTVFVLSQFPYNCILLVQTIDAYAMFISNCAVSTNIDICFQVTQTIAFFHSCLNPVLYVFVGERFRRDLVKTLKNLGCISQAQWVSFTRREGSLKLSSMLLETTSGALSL


Key:
[1] = biological target: hCCR7 (human) (UniProt P32248); experiment: cell-based or functional assay
hCCR7 (human), sequence (P32248 25-378 limits assumed): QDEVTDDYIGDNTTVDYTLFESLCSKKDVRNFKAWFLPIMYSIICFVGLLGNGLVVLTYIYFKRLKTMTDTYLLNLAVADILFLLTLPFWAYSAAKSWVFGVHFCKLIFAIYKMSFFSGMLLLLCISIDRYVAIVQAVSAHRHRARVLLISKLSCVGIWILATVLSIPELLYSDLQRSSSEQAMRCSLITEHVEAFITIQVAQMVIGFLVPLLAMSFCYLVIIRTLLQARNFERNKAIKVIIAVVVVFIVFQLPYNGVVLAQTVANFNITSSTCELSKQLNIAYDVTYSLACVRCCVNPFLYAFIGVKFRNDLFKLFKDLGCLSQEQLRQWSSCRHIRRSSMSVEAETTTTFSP

[2] = biological target: T1, hCCR9; experiment: cell-based or functional assay

Molecule	EC50, agonist activity in an Aequorin assay [1] [µM]	EC50, agonist activity in an Aequorin assay [2] [µM]
native TECK (from UniProt O15444 24-150) (ligand)		0.0679
recombinant native MIP-3β (from UniProt Q99731 22-98) (ligand)	0.0016	

Results, then the molecule that gave them:

EC50, agonist activity in an Aequorin assay [1] [µM]	EC50, agonist activity in an Aequorin assay [2] [µM]	Molecule
0.011		biotinMIP-3β (human MIP-3β/CCL19 residues 1-77 with an additional Lys78 derivatised with Biotin) (from UniProt Q99731 22-98) (ligand)
	0.0636	TECK-Biotin-Nle (truncated human TECK/CCL25, residues 1-74 of the mature protein, Met to Nleu substitution, derivatised at Lys72 with PEG-Biotin) (ligand, disulfide 7-35, 8-52; also: TFA salt) [pGlu]GVFEDCCLAYHYPIGWAVLRRAWTYRIQEVSGSCNLPAAIFYLPKRHRKVCGNPKSREVQRA[Nle]KLLDARNK([AEEA-Biotin])VF
